Source: patent publication US20210221878A1 (Bristol-Myers Squibb, published 2021)
Read-outs that look alike come from different tables or passages of the source. Primed or numbered codes have the meaning given here. * marks the point of attachment. Biotin = O=C1N[C@H]2[C@H](CS[C@H]2CCCCC(=O)*)N1; PEG4′ = not defined here

Columns and labels:
[1] = target: PFF used as inducer in the immunodepletion assay of Example 10 (human, UniProt P37840 1-140); assay: cell-based or functional assay
[2] = target: T1, α-synuclein inducing species in brain lysates of MSA patients (12-18, 01-03, 04-51) (human, UniProt P37840 1-140); assay: cell-based or functional assay
[3] = target: T1, α-synuclein inducing species in brain …; assay: cell-based or functional assay; remark: listed apart in the source
[4] = target: T1, α-synuclein inducing species in brain …; assay: cell-based or functional assay; remark: listed apart in the source
[5] = target: T2, full-length human recombinant wild-type β-synuclein monomer (human, UniProt Q16143 1-134); assay: competition ELISA: antibody pre-incubated with titrated synuclein species in solution; unbound antibody captured on WT PFF-coated plate (CPS)
T2 construct: mature; also called human βSyn monomer

[6] = target: T3, full-length human recombinant wild-type γ-synuclein monomer (human, UniProt O76070 1-127); assay: as above
T3 construct: mature; also called human γSyn monomer

[7] = target: T3, full-length human recombinant wild-type …; assay: as above; remark: listed apart in the source
[8] = target: T2, full-length human recombinant wild-type …; assay: as above; remark: listed apart in the source
[9] = target: T3, full-length human recombinant wild-type …; assay: as above; remark: listed apart in the source
[10] = target: rat αSyn 111-140 peptide (rat, C-terminal amide (NH2)); assay: solution competition ELISA, free antibody captured on PFF plate; column Rat 111-140 (nM)
[11] = target: mouse αSyn 111-140 peptide (mouse, C-terminal amide (NH2)); assay: solution competition ELISA, free antibody captured on PFF plate; column Mouse 111-140 (nM)
[12] = target: T2, full-length human recombinant wild-type …; assay: competition ELISA: antibody pre-incubated with titrated synuclein species in solution; unbound antibody captured on WT PFF-coated plate (CPS); remark: listed apart in the source
[13] = target: T3, full-length human recombinant wild-type …; assay: as above; remark: listed apart in the source
[14] = target: T4, 116-126; assay: 1-sided ELISA on plate-bound biotinylated peptide, luminescence (CPS)
T4 construct: also called alphaSyn 116-126
T4 peptide: {Biotin-PEG4′}-MPVDPDNEAYE-NH2

[15] = target: T5, 125-135; assay: as above
T5 peptide: {Biotin-PEG4′}-YEMPSEEGYQD-NH2

[16] = target: T6, 128-138; assay: as above
T6 peptide: {Biotin-PEG4′}-PSEEGYQDYEP-NH2

[17] = target: T7, 129-139; assay: as above
T7 peptide: {Biotin-PEG4′}-SEEGYQDYEPE-NH2

[18] = target: T8, 130-140; assay: as above
T8 construct: also called alphaSyn 130-140
T8 peptide: {Biotin-PEG4′}-EEGYQDYEPEA-NH2

[19] = target: T9, 117-127; assay: as above
T9 construct: also called alphaSyn 117-127
T9 peptide: {Biotin-PEG4′}-PVDPDNEAYEM-NH2

[20] = target: T10, 118-128; assay: as above
T10 construct: also called alphaSyn 118-128
T10 peptide: {Biotin-PEG4′}-VDPDNEAYEMP-NH2

[21] = target: T11, 119-129; assay: as above
T11 peptide: {Biotin-PEG4′}-DPDNEAYEMPS-NH2

[22] = target: T12, 120-130; assay: as above
T12 construct: also called alphaSyn 120-130
T12 peptide: {Biotin-PEG4′}-PDNEAYEMPSE-NH2

[23] = target: T13, 121-131; assay: as above
T13 construct: also called alphaSyn 121-131
T13 peptide: {Biotin-PEG4′}-DNEAYEMPSEE-NH2

[24] = target: T14, 122-132; assay: as above
T14 construct: also called alphaSyn 122-132
T14 peptide: {Biotin-PEG4′}-NEAYEMPSEEG-NH2

[25] = target: T15, 123-133; assay: as above
T15 peptide: {Biotin-PEG4′}-EAYEMPSEEGY-NH2

[26] = target: T16, 124-134; assay: as above
T16 construct: also called alphaSyn 124-134
T16 peptide: {Biotin-PEG4′}-AYEMPSEEGYQ-NH2

[27] = target: T1, α-synuclein inducing species in brain …; assay: cell-based or functional assay; remark: listed apart in the source

T2 sequence (Q16143 whole entry): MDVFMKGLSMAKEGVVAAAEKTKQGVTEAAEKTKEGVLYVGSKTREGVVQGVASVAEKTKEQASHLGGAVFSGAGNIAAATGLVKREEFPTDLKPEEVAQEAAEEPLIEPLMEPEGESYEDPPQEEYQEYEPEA

B1: 15A5 (antibody, V domains shown)
VH: QVQLQESGPGLVKPSETLSLTCTVSGGSVSSGSYYWCWIRQPPGKGLEWIGYIYYSGRTKYNPSLKSRVTISVDTSKNQFSLKLSSVTAADTAVYYCARERGRFDYWGQGTLVTVSS
VL: not shown
IC50 (nM), immunodepletion of pS129-inducing activity from PFF [1]: 0.042 nM
IC50 (nM), immunodepletion of pS129-inducing activity from MSA 12-18 lysate [2]: 0.61 nM
IC50 (nM), immunodepletion of pS129-inducing activity from MSA 01-03 lysate [3]: 0.59 nM
IC50 (nM), immunodepletion of pS129-inducing activity from MSA 04-51 lysate [4]: 0.12 nM
binding result [5]: binds
binding result [6]: binds

B2: 7A10 (antibody, V domains shown)
VH: QVQLQESGPGLVKPSETLSLTCTVSGGSVSSGRYYWSWIRQPPGKGLEWIGYIYYSGRTKYNPSLKSRVTISVDTSKNQFSLKLSSVTAADTAVYYCTRERGYLDYWGQGTLVTVSS
VL: not shown
IC50 (nM), immunodepletion of pS129-inducing activity from PFF [1]: 0.018 nM
IC50 (nM), immunodepletion of pS129-inducing activity from MSA 12-18 lysate [2]: 0.39 nM
IC50 (nM), immunodepletion of pS129-inducing activity from MSA 01-03 lysate [3]: 0.28 nM
IC50 (nM), immunodepletion of pS129-inducing activity from MSA 04-51 lysate [4]: 0.04 nM
binding result [7]: binds

B3: 21A3 (antibody, V domains shown)
VH: QVQLQESGPGLVKPSETLSLTCTVSGGSVSNRNYYWSWIRQPPGKGLEWIGYIYYSGRTKYNPSLKSRVTISVDTSKNQFSLKVSSVTAADTAVYYCARERGRFDYWGQGTLVTVSS
VL: not shown
notes: also called 21A03
IC50 (nM), immunodepletion of pS129-inducing activity from PFF [1]: 0.061 nM
IC50 (nM), immunodepletion of pS129-inducing activity from MSA 12-18 lysate [2]: 0.16 nM
IC50 (nM), immunodepletion of pS129-inducing activity from MSA 01-03 lysate [3]: 0.37 nM
IC50 (nM), immunodepletion of pS129-inducing activity from MSA 04-51 lysate [4]: 0.05 nM
binding result [8]: binds
binding result [9]: binds

B4: 36A3 (antibody, V domains shown)
VH: QVQLQESGPGLVKPSETLSLTCTVSGGSVSSGSYYWSWIRQPPGKGLEWIGYIYYSGRTKYNPSLKSRVTISVDTSRNQFSLKLSSVTAADTAVYYCARERGWLDPWGQGTLVTVSS
VL: not shown
IC50 (nM), immunodepletion of pS129-inducing activity from PFF [1]: 0.057 nM
IC50 (nM), immunodepletion of pS129-inducing activity from MSA 12-18 lysate [2]: 0.63 nM
IC50 (nM), immunodepletion of pS129-inducing activity from MSA 01-03 lysate [3]: 0.55 nM
IC50 (nM), immunodepletion of pS129-inducing activity from MSA 04-51 lysate [4]: 0.17 nM

B5: 11H11-1 (antibody, V domains shown)
VH: EVQLVQSGGGLVHPGGSLRLSCAGSGFTFSSYAMHWVRQAPGKGLEWVSAIGTGGGTYYADSVKGRFTISRDNAKNSLYLQMNSLRAEDMAVYYCARGNWEFDYWGQGTLVTVSS
VL: not shown
notes: shares its VH with 11H11-2
IC50 (nM), immunodepletion of pS129-inducing activity from PFF [1]: 0.066 nM
IC50 (nM), immunodepletion of pS129-inducing activity from MSA 12-18 lysate [2]: 0.76 nM
IC50 (nM), immunodepletion of pS129-inducing activity from MSA 01-03 lysate [3]: 2.6 nM
IC50 (nM), immunodepletion of pS129-inducing activity from MSA 04-51 lysate [4]: 0.15 nM
EC50 [10]: 5.71 µM
EC50 [11]: 5.75 µM
binding result [12]: binds
binding result [13]: binds

B6: 44B11 (antibody, V domains shown)
VH: EVQLVESGGGLIQPGGSLRLSCAASGFTVSSKYMSWVRQAPGKGLEWVSVMYSGGRRYYADSVKGRFTISRDNSKNTLYLQMNSLRAEDTAVYYCARGDRGDYWGQGTLVTVSS
VL: EIVLTQSPATLSLSPGERATLSCRASQSVSSYLAWYQQKPGQAPRLLIYDASNRATGIPARFSGSGSGTDFTLTISSLEPEDFAVYYCQQRSNWPITFGQGTRLEIK
Fold Antibody 1, immunodepletion of PFF [1]: 1.1 fold
IC50 (nM), immunodepletion of pS129-inducing activity from PFF [1]: 0.028 nM
Fold Antibody 1, immunodepletion of MSA 12-18 lysate [2]: 2.5 fold
IC50 (nM), immunodepletion of pS129-inducing activity from MSA 12-18 lysate [2]: 2.21 nM
Fold Antibody 1, immunodepletion of MSA 01-03 lysate [3]: 0.9 fold
IC50 (nM), immunodepletion of pS129-inducing activity from MSA 01-03 lysate [3]: 2.7 nM
Fold Antibody 1, immunodepletion of MSA 04-51 lysate [4]: 1.1 fold
IC50 (nM), immunodepletion of pS129-inducing activity from MSA 04-51 lysate [4]: 0.41 nM
binding result [14]: no binding
binding result [15]: no binding
binding result [16]: no binding
binding result [17]: binds
binding result [18]: binds
binding result [19]: no binding
binding result [20]: no binding
binding result [21]: no binding
binding result [22]: no binding
binding result [23]: no binding
binding result [24]: no binding
binding result [25]: no binding
binding result [26]: no binding

B7: 7A10-hIgG1.3f (antibody, V domains shown)
VH: QVQLQESGPGLVKPSETLSLTCTVSGGSVSSGRYYWSWIRQPPGKGLEWIGYIYYSGRTKYNPSLKSRVTISVDTSKNQFSLKLSSVTAADTAVYYCTRERGYLDYWGQGTLVTVSS
VL: not shown
IC50 (nM), immunodepletion of pS129-inducing activity from MSA 12-18 lysate [27]: 0.52 nM

B8: 7A10-Vh-K58Y-T93A-hHC-IgG1.3f (antibody, name in Kabat numbering, V domains shown)
VH: QVQLQESGPGLVKPSETLSLTCTVSGGSVSSGRYYWSWIRQPPGKGLEWIGYIYYSGRTYYNPSLKSRVTISVDTSKNQFSLKLSSVTAADTAVYYCARERGYLDYWGQGTLVTVSS
VL: not shown
IC50 (nM), immunodepletion of pS129-inducing activity from MSA 12-18 lysate [27]: 4.65 nM

B9: 7A10-Vh-R56S-K58N-T93A-IgG1.3f (antibody, name in Kabat numbering, V domains shown)
VH: QVQLQESGPGLVKPSETLSLTCTVSGGSVSSGRYYWSWIRQPPGKGLEWIGYIYYSGSTNYNPSLKSRVTISVDTSKNQFSLKLSSVTAADTAVYYCARERGYLDYWGQGTLVTVSS
VL: not shown
IC50 (nM), immunodepletion of pS129-inducing activity from MSA 12-18 lysate [27]: 51 nM

B10: 7A10-Vh-R56S-T93A-hHC-IgG1.3f (antibody, name in Kabat numbering, V domains shown)
VH: QVQLQESGPGLVKPSETLSLTCTVSGGSVSSGRYYWSWIRQPPGKGLEWIGYIYYSGSTKYNPSLKSRVTISVDTSKNQFSLKLSSVTAADTAVYYCARERGYLDYWGQGTLVTVSS
VL: not shown
IC50 (nM), immunodepletion of pS129-inducing activity from MSA 12-18 lysate [27]: 9 nM

B11: 7A10-Vh-T93A-hHC-IgG1.3f (antibody, V domains shown)
VH: QVQLQESGPGLVKPSETLSLTCTVSGGSVSSGRYYWSWIRQPPGKGLEWIGYIYYSGRTKYNPSLKSRVTISVDTSKNQFSLKLSSVTAADTAVYYCARERGYLDYWGQGTLVTVSS
VL: not shown
IC50 (nM), immunodepletion of pS129-inducing activity from MSA 12-18 lysate [27]: 0.66 nM

B12: 21A3-Vh-V82L-hHC-IgG1.3f (antibody, V domains shown)
VH: QVQLQESGPGLVKPSETLSLTCTVSGGSVSNRNYYWSWIRQPPGKGLEWIGYIYYSGRTKYNPSLKSRVTISVDTSKNQFSLKLSSVTAADTAVYYCARERGRFDYWGQGTLVTVSS
VL: not shown
IC50 (nM), immunodepletion of pS129-inducing activity from MSA 12-18 lysate [27]: 0.11 nM

B13: 21A3-hIgG1.3f (antibody, V domains shown)
VH: QVQLQESGPGLVKPSETLSLTCTVSGGSVSNRNYYWSWIRQPPGKGLEWIGYIYYSGRTKYNPSLKSRVTISVDTSKNQFSLKVSSVTAADTAVYYCARERGRFDYWGQGTLVTVSS
VL: not shown
IC50 (nM), immunodepletion of pS129-inducing activity from MSA 12-18 lysate [27]: 0.19 nM
